This is an account of results in patent US20240209076A1 (KODIAK SCIENCES, published 2024).

Numbering of substitutions follows the chain as printed. Numbers in names are those of the source.

The chains are these.
B1: dual inhibitor molecule A (VEGF Trap-AntiIL-6) (other)
heavy: SDTGRPFVEMYSEIPEIIHMTEGRELVIPCRVTSPNITVTLKKFPLDTLIPDGKRIIWDSRKGFIISNATYKEIGLLTCEATVNGHLYKTNYLTHRQTNTIIDVVLSPSHGIELSVGEKLVLNCTARTELNVGIDFNWEYPSSKHQHKKLVNRDLKTQSGSEMKKFLSTLTIDGVTRSDQGLYTCAASSGLMTKKNSTFVRVHEKGGGGSGGGGSEVQLVESGGGLVQPGGSLRLSCAASGFTFSPFAISWVRQAPGKGLEWVAKISPGGSWTYYSDTVTDRFTFSLDTSKSTAYLQMNSLRAEDTAVYYCARQLWGYYALDVWGQGTLVTVSSASTKGPSVFPLAPSSKSTSGGTAALGCLVKDYFPEPVTVSWNSGALTSGVHTFPAVLQSSGLYSLSSVVTVPSSSLGTQTYICNVNHKPSNTKVDKKVEPKSCDKTHTCPPCPAPEAAGAPSVFLFPPKPKDTLMISRTPEVTCVVVDVSHEDPEVKFNWYVDGVEVHNAKTKPREEQYNSTYRVVSVLTVLHQDWLNGKEYKCKVSNKALPAPIEKTISKAKGQPREPQVYTLPPSREEMTKNQVSLTCLVKGFYPSDIAVEWESNGQPENNYKTTPPVLDSDGSFFLYSKLTVDKSRWQQGNVFSCSVMHEALHNHYTQKSLSCSPGK
light: DIQLTQSPSSLSASVGDRVTITCSASISVSYLYWYQQKPGKAPKLLIYDDSSLASGVPSRFSGSGSGTDFTLTISSLQPEDFATYYCQQWSGYPYTFGQGTKVEIKRTVAAPSVFIFPPSDEQLKSGTASVVCLLNNFYPREAKVQWKVDNALQSGNSQESVTEQDSKDSTYSLSSTLTLSKADYEKHKVYACEVTHQGLSSPVTKSFNRGEC
B2: dual inhibitor molecule B (VEGF Trap-AntiIL-6) (other)
heavy: B1 heavy
light: B1 light with D50A
notes: Trap-antibody fusion, VEGF trap at the N-terminus of the anti-IL-6 heavy chain (VH variant I); light chain variant IV
B3: anti-IL-6 antibody, light chain M32L (heavy chain WT) (antibody, V domains shown)
VH: EVQLVESGGGLVQPGGSLRLSCAASGFTFSPFAMSWVRQAPGKGLEWVAKISPGGSWTYYSDTVTGRFTFSLDTSKSTAYLQMNSLRAEDTAVYYCARQLWGYYALDIWGQGTLVTVSS
VL: DIQLTQSPSSLSASVGDRVTITCSASISVSYLYWYQQKPGKAPKLLIYDMSNLASGVPSRFSGSGSGTDFTLTISSLQPEDFATYYCMQWSGYPYTFGQGTKVEIK
notes: See note of m2; also called WT / M32L
B4: anti-IL-6 antibody, light chain M88A (heavy chain WT) (antibody, V domains shown)
VH: B3 VH
VL: B3 VL with L32M, M88A
notes: See note of m2; also called WT / M88A
B5: anti-IL-6 antibody, heavy chain variant II (M34W, G66D, I108V) / light chain variant III (M32L, M50D, N52S, M88Q) (antibody, V domains shown)
VH: B3 VH with M34W, G66D, I108V
VL: B3 VL with M50D, N52S, M88Q
notes: See note of m39; also called M34W, G66D, I108V/ M32L, M50D, N52S, M88Q; II/III
B6: anti-IL-6 antibody, heavy chain variant II (M34W, G66D, I108V) / light chain variant V (M32L, M50D, M88Q) (antibody, V domains shown)
VH: B3 VH with M34W, G66D, I108V
VL: B3 VL with M50D, M88Q
notes: See note of m39; also called M34W, G66D, I108V/ M32L, M50D, M88Q; II/V
B7: anti-IL-6 antibody, heavy chain variant I (M34I, G66D, I108V) / light chain variant IV (M32L, M50A, N52S, M88Q) (antibody, V domains shown)
VH: B3 VH with M34I, G66D, I108V
VL: B3 VL with M50A, N52S, M88Q
notes: See note of m39; also called M34I, G66D, I108V/ M32L, M50A, N52S, M88Q; I/IV
B8: anti-IL-6 antibody, light chain M50D (heavy chain WT) (antibody, V domains shown)
VH: B3 VH
VL: B3 VL with L32M, M50D
notes: See note of m2; also called WT / M50D
B9: anti-IL-6 antibody, light chain M32V (heavy chain WT) (antibody, V domains shown)
VH: B3 VH
VL: B3 VL with L32V
notes: See note of m2; also called WT / M32V
B10: anti-IL-6 antibody, heavy chain variant I (M34I, G66D, I108V) / light chain variant III (M32L, M50D, N52S, M88Q) (antibody, human IgG1, V domains shown)
VH: B3 VH with M34I, G66D, I108V
VL: B3 VL with M50D, N52S, M88Q
notes: also called M34I, G66D, I108V/ M32L, M50D, N52S, M88Q; I/III
B11: anti-IL-6 antibody, heavy chain variant II (M34W, G66D, I108V) / light chain variant IV (M32L, M50A, N52S, M88Q) (antibody, V domains shown)
VH: B3 VH with M34W, G66D, I108V
VL: B3 VL with M50A, N52S, M88Q
notes: See note of m39; also called M34W, G66D, I108V/ M32L, M50A, N52S, M88Q; II/IV
B12: anti-IL-6 antibody, heavy chain variant I (M34I, G66D, I108V) / light chain variant V (M32L, M50D, M88Q) (antibody, V domains shown)
VH: B3 VH with M34I, G66D, I108V
VL: B3 VL with M50D, M88Q
notes: See note of m39; also called M34I, G66D, I108V/ M32L, M50D, M88Q; I/V
B13: anti-IL-6 antibody, light chain T96L (heavy chain WT) (antibody, V domains shown)
VH: B3 VH
VL: B3 VL with L32M, T96L
notes: See note of m2; also called WT / T96L
B14: anti-IL-6 antibody, light chain T96V (heavy chain WT) (antibody, V domains shown)
VH: B3 VH
VL: B3 VL with L32M, T96V
notes: See note of m2; also called WT / T96V
B15: anti-IL-6 antibody, light chain M88V (heavy chain WT) (antibody, V domains shown)
VH: B3 VH
VL: B3 VL with L32M, M88V
notes: See note of m2; also called WT / M88V
B16: anti-IL-6 antibody, light chain D49E (heavy chain WT) (antibody, V domains shown)
VH: B3 VH
VL: B3 VL with L32M, D49E
notes: See note of m2; also called WT / D49E
B17: anti-IL-6 antibody, heavy chain WT, light chain I27F (antibody, IgG1, V domains shown)
VH: B3 VH
VL: B3 VL with I27F, L32M
notes: Full IgG1 tested; V domains derived as in m2
B18: anti-IL-6 antibody, heavy chain WT, light chain I27L (antibody, IgG1, V domains shown)
VH: B3 VH
VL: B3 VL with I27L, L32M
notes: as for B17
B19: anti-IL-6 antibody, heavy chain WT, light chain I27W (antibody, IgG1, V domains shown)
VH: B3 VH
VL: B3 VL with I27W, L32M
notes: as for B17

The target in the first test is T1, recombinant human IL-6 (human, UniProt P05231 30-212).
T1 construct: Bought protein
Description: SPR Biacore, supernatant dual inhibitor on Protein A chip, IL-6 analyte, 25 C. (Surface plasmon resonance follows binding to a sensor surface in real time, without labels.)
T1 sequence (P05231 30-212 limits assumed): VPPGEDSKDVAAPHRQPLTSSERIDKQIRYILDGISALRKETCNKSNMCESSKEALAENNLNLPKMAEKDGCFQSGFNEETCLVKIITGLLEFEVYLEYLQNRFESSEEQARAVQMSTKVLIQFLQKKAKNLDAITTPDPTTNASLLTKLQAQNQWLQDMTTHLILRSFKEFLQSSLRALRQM
Turning to B1, the Kd (usually the concentration at which binding is half-saturated) was 0.589 nM, the off-rate (koff) (usually the first-order rate constant of dissociation) worked out at 0.000182 s⁻¹ and the kon (usually the second-order rate constant of association) was determined as 309000 M⁻¹ s⁻¹.
On to B2, for which the Kd came to 0.305 nM, the off-rate (koff) was determined as 0.000185 s⁻¹ and the kon worked out at 605000 M⁻¹ s⁻¹.

The next test concerns the target T1, recombinant human IL-6. Briefly: SPR Biacore, purified Ab on Protein A chip, IL-6 analyte, 37 C. On the procedure:
(§1) Antibodies were captured on a Protein A chip (GE) by injecting 1:20 dilution of cell supernatant at 10 μL/min for 60 seconds. […] The sensor chip was regenerated by a 60 seconds injection of 10 mM Glycine pH 1.7 at flow rate of 50 μL/min. […] For this setup, 1 μg/mL of purified antibody was injected over a Protein A chip at 10 μL/min for 25-28 seconds. Data analysis for supernatant and purified samples were performed using BIAevaluation software (GE). All sensorgrams were double reference subtracted and fit using a 1:1 Langmuir binding model.
Regarding B3, the Kd came out at 0.395 nM, the koff came out at 0.00035 s⁻¹ and the on-rate (kon) worked out at 885000 M⁻¹ s⁻¹.
In the same order, the values of B4 are 2.25 nM, 0.00132 s⁻¹ and 586000 M⁻¹ s⁻¹.
The matching figures for B5: 0.507 nM, 0.000551 s⁻¹ and 1.19e+06 M⁻¹ s⁻¹.
The matching figures for B6: 0.465 nM, 0.000627 s⁻¹ and 1.34e+06 M⁻¹ s⁻¹.
As for B7, the Kd was 0.556 nM, the koff was determined as 0.000757 s⁻¹ and the kon stood at 1.15e+06 M⁻¹ s⁻¹.
The matching figures for B8: 0.311 nM, 0.000464 s⁻¹ and 1.49e+06 M⁻¹ s⁻¹.
With B9, the Kd was 0.429 nM, the koff turned out to be 0.000369 s⁻¹ and the on-rate (kon) was determined as 861000 M⁻¹ s⁻¹.
In the same order, the values of B10 are 0.625 nM, 0.000702 s⁻¹ and 1.22e+06 M⁻¹ s⁻¹.
Consider B11, for which the Kd came to 0.615 nM, the koff was found to be 0.000652 s⁻¹ and the kon is 1.08e+06 M⁻¹ s⁻¹.
As to B12, the Kd is 0.602 nM and the koff amounted to 0.00073 s⁻¹.
As for B13, the Kd stood at 0.901 nM, the koff amounted to 0.000795 s⁻¹ and the kon is 882000 M⁻¹ s⁻¹.
Regarding B14, the Kd came to 0.695 nM, the koff is 0.000639 s⁻¹ and the kon amounted to 921000 M⁻¹ s⁻¹.
Regarding B15, the Kd is 0.713 nM, the koff is 0.000441 s⁻¹ and the kon was determined as 619000 M⁻¹ s⁻¹.
As for B16, the Kd worked out at 0.624 nM, the off-rate (koff) is 0.000417 s⁻¹ and the on-rate (kon) is 668000 M⁻¹ s⁻¹.

Another test has as its target T2, recombinant human IL-6 (human, UniProt P05231 30-212).
T2 construct: Flowed in solution over the captured antibodies
Briefly: SPR (Biacore), purified IgG on Protein A, 37 C. The protocol:
as §1
T2 sequence (P05231 30-212 limits assumed): as above
Consider B17, for which the dissociation constant Kd was found to be 0.685 nM, the off-rate constant (koff) turned out to be 0.00069 s⁻¹ and the kon was determined as 1.01e+06 M⁻¹ s⁻¹.
In the same order, the values of B18 are 0.553 nM, 0.000449 s⁻¹ and 811000 M⁻¹ s⁻¹.
In the same order, the values of B19 are 0.719 nM, 0.000764 s⁻¹ and 1.06e+06 M⁻¹ s⁻¹.

The next test deals with T1, recombinant human IL-6. Briefly: SPR Biacore, purified dual inhibitor on Protein A chip, IL-6 analyte, 37 C.
With B1, the Kd is 0.484 nM, the koff was 0.000538 s⁻¹ and the kon worked out at 1.11e+06 M⁻¹ s⁻¹.
In the same order, the values of B2 are 0.507 nM, 0.000536 s⁻¹ and 1.06e+06 M⁻¹ s⁻¹.

The target of a further test is T2, recombinant human IL-6. Briefly: SPR (Biacore), supernatant IgG on Protein A, 25 C.
As to B17, the Kd stood at 0.443 nM, the koff was 0.000193 s⁻¹ and the association rate constant (kon) is 436000 M⁻¹ s⁻¹.
In the case of B18, the Kd turned out to be 0.332 nM, the koff was 0.000145 s⁻¹ and the kon came to 437000 M⁻¹ s⁻¹.
The matching figures for B19: 0.33 nM, 0.000161 s⁻¹ and 487000 M⁻¹ s⁻¹.

Another test has as its target T1, recombinant human IL-6. Briefly: SPR Biacore, supernatant Ab on Protein A chip, IL-6 analyte, 25 C.
With B3, the Kd was determined as 0.199 nM, the koff was 0.000118 s⁻¹ and the kon turned out to be 591000 M⁻¹ s⁻¹.
Consider B4, for which the Kd was 0.282 nM, the koff stood at 0.000127 s⁻¹ and the kon worked out at 451000 M⁻¹ s⁻¹.
B5: the Kd amounted to 0.37 nM and the koff stood at 0.000173 s⁻¹.
Regarding B6, the Kd came to 0.231 nM, the koff came to 0.000271 s⁻¹ and the kon turned out to be 700000 M⁻¹ s⁻¹.
In the case of B7, the Kd was determined as 0.323 nM, the koff stood at 0.000214 s⁻¹ and the kon came out at 462000 M⁻¹ s⁻¹.
In the same order, the values of B8 are 0.138 nM, 0.000112 s⁻¹ and 806000 M⁻¹ s⁻¹.
With B9, the dissociation constant (Kd) came out at 0.23 nM, the koff was determined as 0.000116 s⁻¹ and the kon is 505000 M⁻¹ s⁻¹.
For the molecule B10, the Kd was determined as 0.552 nM and the koff came out at 0.0002 s⁻¹.
On to B11, for which the dissociation constant (Kd) is 0.297 nM, the koff was 0.00117 s⁻¹ and the kon is 559000 M⁻¹ s⁻¹.
For the molecule B12, the Kd stood at 0.386 nM.
As for B13, the dissociation constant Kd amounted to 0.259 nM, the koff came out at 0.000135 s⁻¹ and the kon amounted to 520000 M⁻¹ s⁻¹.
For B14, the Kd was determined as 0.423 nM, the koff was determined as 0.000192 s⁻¹ and the kon was 454000 M⁻¹ s⁻¹.
With B15, the Kd worked out at 0.239 nM, the koff amounted to 0.000107 s⁻¹ and the kon turned out to be 448000 M⁻¹ s⁻¹.
Take B16: the Kd turned out to be 0.241 nM, the koff stood at 0.000111 s⁻¹ and the kon came out at 459000 M⁻¹ s⁻¹.
